Data taken from patent publication US9907791B2, “Ron inhibitors for use in preventing and treating bone loss” (UNIVERSITY OF UTAH RESEARCH FOUNDATION, priority 2014, dated 2018).

Columns and labels:
Assay type in all cases: cell-based, mice
bone marrow osteoclasts [1] = experiment: Osteoclast resorption assay; conditions: 100 pg/mL MSP daily day 9 to 12
Experimental: Bone marrow osteoclasts were generated from 6 to 8 week old WT and RonTK−/− mice. Briefly, bone marrow was isolated from hindlimb bones and plated in α-MEM media containing 10% heat-inactivated fetal bovine serum (FBS, Sigma, St. Louis, Mo.), 100 units/mL penicillin-streptomycin (Hyclone), and 33 ng/mL human macrophage colony-stimulating factor (hM-CSF) (PeproTech, Rocky Hill, N.J.) for 24 hours. Non-adherent cells were collected and frozen for later use. To assess resorption activity, bone marrow precursor cells were thawed and seeded at a density of 1×10^5 cells per well in BioCoat Osteologic slides (BD Biosciences, San Jose, Calif.) in α-MEM media containing 10% FBS and antibiotics. After adhering overnight, media was removed and media containing 33 ng/mL hM-CSF and 9 ng/mL muRANKL (R & D systems, Minneapolis, Minn.) was added. The medium was changed every 3 days depending on acidification, and the assay was terminated as indicated. Recombinant human MSP was prepared and added daily as indicated. Cells were removed with 6% bleach and slides were viewed microscopically using phase-contrast with 20× magnification. Osteolytic resorption area within 5 representative fields was determined using Image J software, experiments were performed in triplicate. Recombinant MSP was prepared as follows (to be described in detail elsewhere): Concentrated, serum-free media from an MCF7 cell line engineered to overexpress MSP was cleaved with kallikrein (Invitrogen, Waltham, Mass.; 4 ng of kallikrein/1 μg of supernatant protein at 37° C. for 2.5 hours). The reaction was diluted to 20 mL with 10 mM sodium phosphate, pH 7.4 and loaded onto a 5 mL HiTrap heparin column (Millipore, Billerica, Mass.) equilibrated with 20 mL of 10 mM sodium phosphate, pH 7.4, at a rate of 1 mL/min. The column was washed with 10 mL of 10 mM sodium phosphate, pH 7.4, at a rate of 1 mL/min. […]

bone marrow osteoclasts [2] = experiment: Osteoclast survival assay; conditions: 100 pg/mL MSP daily from day 7 for 48 hours
Experimental: (§1) Bone marrow precursor cells were thawed and seeded at a density of 2×10^5 cells per well in a 24-well plate containing glass coverslips in α-MEM media containing 10% FBS and antibiotics. After adhering overnight, media was removed and media containing 33 ng/mL hM-CSF and 9 ng/mL muRANKL was added. Cells were allowed to differentiate for 7 days with media changed every 3 days. Coverslips were then imaged microscopically using phase contrast to determine osteoclast number in each well. To test survival, factor-containing media was removed and α-MEM media containing 10% FBS was added as well as MSP as indicated. Cells were cultured for an additional 48 hours, fixed with 10% NBF for 10 minutes and washed with 1×PBS. For TRAP fluorescent staining, the leukocyte acid phosphatase kit (Sigma, St. Louis, Mo.) was used according to the manufacturer's instructions, with the substitution of 200 μM ELF97 (Invitrogen, Waltham, Mass.) as a phosphatase substrate. Coverslips were incubated in TRAP solution for 15 minutes at 37 degrees, washed with 1×PBS and counterstained with DAPI. The number of multinucleated TRAP+ cells (containing 4 or more nuclei) within 5 representative fields were included for quantification. Experiments were performed in triplicate.

[3] = tested on: WT bone marrow precursor cells; experiment: Osteoclast differentiation (TRAP+ osteoclasts); conditions: 100 pg/mL MSP in presence of M-CSF and RANKL
Experimental: as §1, with “Coverslips were incubated in TRAP solution for 15 minutes at 37 degrees, washed with 1×PBS and counterstained with DAPI.” left out, “Experiments were performed in triplicate.” left out
M-CSF and RANKL were present continuously beginning on day 1 until experimental analysis. […] TRAP+ cells were identified by fluorescent TRAP stain and cells with 4 or more nuclei were counted (***p<0.0001). […]

c-Src = experiment: Western blot of osteoclast lysates, phospho-Src
Experimental: Cells were serum starved (0.5% FBS) for 3 hours prior to lysate collection. Inhibitors were added 1 hour prior to lysis and MSP was added 15 min prior to lysis when indicated. Cells were washed with 1×PBS and harvested in lysis buffer (25 mM Tris-HCl, pH 7.5, 0.42 M NaCl, 1.5 mM MgCl2, 0.5 mM EDTA, 1 mM DTT, 25% sucrose, and 0.1% Triton X-100) plus 100× protease arrest (Bioscience, Bozeman, Mont.) and 100× orthovanadate. Primary antibodies used for immunoblotting include: anti-MSP (Santa Cruz, sc-6090, Dallas, Tex.) at a 1:250 dilution, anti-pan Akt (Cell Signaling, #4691S, Beverly, Mass.) at a 1:1000 dilution, anti-pan Erk (Cell Signaling, #4695, Beverly, Mass.) at a 1:1000 dilution, anti-phospho Akt (Cell Signaling, #9271 L, Beverly, Mass.) at a 1:500 dilution, anti-phospho Erk (Cell Signaling, #4370S, Beverly, Mass.) at a 1:500 dilution, anti-Src (Cell Signaling, #2110, Beverly, Mass.) at a 1:500 dilution, and anti-phospho Src (Y416) (Cell Signaling, #2113, Beverly, Mass.) at a 1:500 dilution. The secondary antibodies used were HRP-conjugated anti-goat IgG (Santa Cruz, Dallas, Tex.) and anti-rabbit IgG (Santa Cruz, Dallas, Tex.). Chemiluminescent signals were detected using Immun-Star HRP (BioRad, Hercules, Calif.).

B1: MSP: recombinant human macrophage-stimulating protein, the RON ligand (protein)
chain: QRSPLNDFQVLRGTELQHLLHAVVPGPWQEDVADAEECAGRCGPLMDCRAFHYNVSSHGCQLLPWTQHSPHTRLRRSGRCDLFQKKDYVRTCIMNNGVGYRGTMATTVGGLPCQAWSHKFPNDHKYTPTLRNGLEENFCRNPDGDPGGPWCYTTDPAVRFQSCGIKSCREAACVWCNGEEYRGAVDRTESGRECQRWDLQHPHQHPFEPGKFLDQGLDDNYCRNPDGSERPWCYTTDPQIEREFCDLPRCGSEAQPRQEATTVSCFRGKGEGYRGTANTTTAGVPCQRWDAQIPHQHRFTPEKYACKDLRENFCRNPDGSEAPWCFTLRPGMRAAFCYQIRRCTDDVRPQDCYHGAGEQYRGTVSKTRKGVQCQRWSAETPHKPQFTFTSEPHAQLEENFCRNPDGDSHGPWCYTMDPRTPFDYCALRRCADDQPPSILDPPDQVQFEKCGKRVDRLDQRRSKLRVVGGHPGNSPWTVSLRNRQGQHFCGGSLVKEQWILTARQCFSSCHMPLTGYEVWLGTLFQNPQHGEPSLQRVPVAKMVCGPSGSQLVLLKLERSVTLNQRVALICLPPEWYVVPPGTKCEIAGWGETKGTGNDTVLNVALLNVISNQECNIKHRGRVRESEMCTEGLLAPVGACEGDYGGPLACFTHNCWVLEGIIIPNRVCARSRWPAVFTRVSVFVDWIHKVMRLG
modifications: left off: small tags and cut ends
notes: recombinant human macrophage-stimulating protein, the RON ligand
Bone marrow osteoclasts [1]
  resorptive capacity of RonTK−/− osteoclasts: no effect
  resorptive capacity of WT osteoclasts: significant increase
Bone marrow osteoclasts [2]
  number of surviving osteoclasts without RANKL and M-CSF: significantly augmented
[3]
  osteoclast differentiation: did not increase osteoclast differentiation
c-Src
  phosphorylated c-Src in WT osteoclasts: increased Src phosphorylation
